Experimental data: patent publication US20050208610

Key:
[1] = target: T1, peptide CR006 (amino acids 49-62)
T1 chain: SLKDYWSTVKDKFS

[2] = target: T2, peptide CR002 (amino acids 41-60)
T2 chain: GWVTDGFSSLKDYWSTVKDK

B1: TF:VIIa complex (protein)
chain 1: SGTTNTVAAYNLTWKSTNFKTILEWEPKPVNQVYTVQISTKSGDWKSKCFYTTDTECDLTDEIVKDVKQTYLARVFSYPAGNVESTGSAGEPLYENSPEFTPYLETNLGQPTIQSFEQVGTKVNVTVEDERTLVRRNNTFLSLRDVFGKDLIYTLYYWKSSSSGKKTAKTNTNEFLIDVDKGENYCFSVQAVIPSRTVNRKSTDSPVECMGQEKGEFREIFYIIGAVVFVVIILVIILAISLHKCRKAGVGQSWKENSPLNVS
chain 2: ANAFLEELRPGSLERECKEEQCSFEEAREIFKDAERTKLFWISYSDGDQCASSPCQNGGSCKDQLQSYICFCLPAFEGRNCETHKDDQLICVNENGGCEQYCSDHTGTKRSCRCHEGYSLLADGVSCTPTVEYPCGKIPILEKRNASKPQGRIVGGKVCPKGECPWQVLLLVNGAQLCGGTLINTIWVVSAAHCFDKIKNWRNLIAVLGEHDLSEHDGDEQSRRVAQVIIPSTYVPGTTNHDIALLRLHQPVVLTDHVVPLCLPERTFSERTLAFVRFSLVSGWGQLLDRGATALELMVLNVPRLMTQDCLQQSRKVGDSPNITEYMFCAGYSDGSKDSCKGDSGGPHATHYRGTWYLTGIVSWGQGCATVGHFGVYTRVSQYIEWLQKLMRSEPRPGVLLRAPFP
- 2-stage chromogenic substrate assay that determines TF:VIIa-mediated activation of factor X [1]: Progressive loss of potency was shown as additional N-terminal residues were removed (CR006; amino acids 49-62)
- 2-stage chromogenic substrate assay that determines TF:VIIa-mediated activation of factor X [2]: retained the ability to inhibit TF:VIIa mediated activation of factor X, but at much lower potency than the apolipoprotein CIII fragment
- 2-stage chromogenic substrate assay that determines TF:VIIa-mediated activation of factor X (peptide CR004): showed no inhibitory activity in the chromogenic substrate assay
- 2-stage chromogenic substrate assay that determines TF:VIIa-mediated activation of factor X (peptide CR005): showed no inhibitory activity in the chromogenic substrate assay
- 2-stage chromogenic substrate assay that determines TF:VIIa-mediated activation of factor X (peptide CR003): showed no inhibitory activity in the chromogenic substrate assay
